Test results as given in PMC5566378.

Target: human IL-17RA extracellular domain (human), Q96F46
Assay: SPR
Conditions: ligand; chains chain; biotin on the Avi-tag (E. coli BirA), for the SPR measurements only; remark: other sources report otherwise

B1: human IL-17F homodimer, Q96PD4 31-163 (protein)
chain: RKIPKVGHTFFQKPESCPPVPGGSMKLDIGIINENQRVSMSRNIESRSTSPWNYTVTWDPNRYPSEVVQAQCRNLGCINAQGKEDISMNSVPIQQETLVVRRKHQGCSVSFQLEKVLVTVGCTCVTPVIHHVQ
Question: B1 was tested. Which Kd did it give?
Answer: Its Kd is 136 nM.
